Assay results taken from the supplement of paper PMC6755084.

B1: F1*; the commonest letter at each place (parent)
chain: GAGACCGCAACTGAAAAGTTGTTATCACTTGTCGTAAGACACTTTGGATGGGTTGAAGTTCTGCACGTAGAAGCAAAAGGC

Variants of: B1
Test: fraction ligated after 30 min (ligated reads / total reads); higher = more ligase activity
Details: with F1*sub RNA substrate (template-directed ligation), 42 °C
Summary of the method: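 Ligase ribozyme variants were made from oligo-pool templates by PCR amplification, T7 transcription and gel purification. After gel separation, ligated and unligated bands were reverse transcribed with barcoded primers and sequenced on a MiSeq, with core bases filtered at quality ≥20. The fraction ligated for each variant was the number of ligated reads divided by total reads.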

First: G31T A57T
Second: G31T A57G
The fraction ligated of the first is lower: 0.78 for the first, 0.819 for the second.

First: G31T A57C
Second: G31T A48C
The fraction ligated of the first is higher: 0.789 for the first, 0.292 for the second.

First: G31T A48T
Second: G31T A48G
The fraction ligated of the first is lower: 0.0299 for the first, 0.49 for the second.

Going from G31A A41T to G31A A41G, the fraction ligated falls from 0.81 to 0.797.

Compared with G31A A41C, G31A T43C is higher in fraction ligated: 0.74 for the first, 0.797 for the second.

First: G31A T43G
Second: G31A T43A
The fraction ligated of the first is lower: 0.807 for the first, 0.815 for the second.

Compared with G31A T49C, G31A T49G is higher in fraction ligated: 0.136 for the first, 0.229 for the second.

Going from G31A T49A to G31C G46C, the fraction ligated rises from 0.214 to 0.732.

Going from G31C G46T to G31C G46A, the fraction ligated rises from 0.784 to 0.797.

G31A G38T and G31A G38C are the same in fraction ligated: 0.798 for the first, 0.798 for the second.

Going from G31A G38A to G31A G50A, the fraction ligated falls from 0.796 to 0.025.

First: G31A G50C
Second: G31A G50T
The fraction ligated of the first is lower: 0.0295 for the first, 0.195 for the second.

First: G31A T45G
Second: G31A T45C
The fraction ligated of the first is higher: 0.137 for the first, 0.0954 for the second.

First: G31A T45A
Second: G31C A36C
The fraction ligated of the first is higher: 0.395 for the first, 0.357 for the second.

Compared with G31C A36G, G31C A36T is higher in fraction ligated: 0.682 for the first, 0.79 for the second.

Compared with G31T G34C, G31T G34T is higher in fraction ligated: 0.771 for the first, 0.793 for the second.

Compared with G31T G34A, G31T is higher in fraction ligated: 0.775 for the first, 0.793 for the second.

Going from G31C to G31A G47C, the fraction ligated falls from 0.79 to 0.0647.

Compared with G31A G47A, G31A G47T is lower in fraction ligated: 0.54 for the first, 0.0708 for the second.

Compared with G31A G46C, G31A G46T is higher in fraction ligated: 0.524 for the first, 0.777 for the second.

Compared with G31A G46A, G31T A37C is lower in fraction ligated: 0.845 for the first, 0.78 for the second.

Going from G31T A37G to G31T A37T, the fraction ligated rises from 0.792 to 0.815.

Compared with G31C C42T, G31C C42A is higher in fraction ligated: 0.786 for the first, 0.82 for the second.

Compared with G31C C42G, G31C G38T is higher in fraction ligated: 0.79 for the first, 0.819 for the second.

Compared with G31C G38A, G31C G38C is lower in fraction ligated: 0.811 for the first, 0.778 for the second.

Compared with G31A C42A, G31A C42G is lower in fraction ligated: 0.834 for the first, 0.818 for the second.

Compared with G31A C42T, G31C T44C is lower in fraction ligated: 0.839 for the first, 0.792 for the second.

Compared with G31C T44A, G31C T44G is higher in fraction ligated: 0.775 for the first, 0.781 for the second.

Compared with G31T A41G, G31T A41T is higher in fraction ligated: 0.761 for the first, 0.772 for the second.

Compared with G31T A41C, G31T A36T is higher in fraction ligated: 0.586 for the first, 0.785 for the second.

Going from G31T A36C to G31T A36G, the fraction ligated rises from 0.769 to 0.798.

First: G31T C42T
Second: G31T C42G
The fraction ligated of the first is higher: 0.822 for the first, 0.809 for the second.

First: G31T C42A
Second: G31C T35C
The fraction ligated of the first is higher: 0.809 for the first, 0.769 for the second.

Compared with G31C T35A, G31C T35G is higher in fraction ligated: 0.796 for the first, 0.8 for the second.

First: G31T G46A
Second: G31A T32G
The fraction ligated of the first is lower: 0.79 for the first, 0.837 for the second.

First: G31A T32C
Second: G31A T32A
The fraction ligated of the first is higher: 0.811 for the first, 0.809 for the second.

Going from G31C T49G to G31C T49C, the fraction ligated falls from 0.0675 to 0.0658.

Compared with G31C T49A, G31C T32G is higher in fraction ligated: 0.0574 for the first, 0.78 for the second.

Compared with G31C T32A, G31C T32C is lower in fraction ligated: 0.803 for the first, 0.796 for the second.

Compared with G31T G38A, G31T G38T is lower in fraction ligated: 0.802 for the first, 0.801 for the second.

Compared with G31T G38C, G31A G34A is higher in fraction ligated: 0.78 for the first, 0.804 for the second.

Going from G31A G34C to G31A G34T, the fraction ligated rises from 0.769 to 0.796.

Going from G31C T45A to G31C T45C, the fraction ligated falls from 0.492 to 0.0406.

Going from G31C T45G to G31T C40A, the fraction ligated rises from 0.0355 to 0.827.

Going from G31T C40T to G31T C40G, the fraction ligated rises from 0.829 to 0.83.

G31A A39G and G31A A39T are the same in fraction ligated: 0.795 for the first, 0.795 for the second.

Going from G31A A39C to G31A A56T, the fraction ligated falls from 0.78 to 0.724.

Compared with G31A A56C, G31A A56G is higher in fraction ligated: 0.161 for the first, 0.687 for the second.

Going from G31A A57G to G31A A57T, the fraction ligated falls from 0.851 to 0.796.

Going from G31A A57C to G31T A56C, the fraction ligated falls from 0.819 to 0.221.

Going from G31T A56G to G31T A56T, the fraction ligated rises from 0.679 to 0.755.

Going from G31C G55C to G31C G55A, the fraction ligated rises from 0.14 to 0.809.

Going from G31C G55T to G31C A37C, the fraction ligated falls from 0.794 to 0.769.

Going from G31C A37G to G31C A37T, the fraction ligated falls from 0.817 to 0.79.

Compared with G31A G55A, G31A G55T is lower in fraction ligated: 0.823 for the first, 0.767 for the second.

Compared with G31A G55C, G31C C40T is higher in fraction ligated: 0.205 for the first, 0.791 for the second.

Going from G31C C40G to G31C C40A, the fraction ligated falls from 0.796 to 0.793.

Going from G31T A39G to G31T A39T, the fraction ligated rises from 0.754 to 0.792.

First: G31T A39C
Second: G31A A37G
The fraction ligated of the first is lower: 0.769 for the first, 0.827 for the second.

Compared with G31A A37T, G31A C40A is higher in fraction ligated: 0.826 for the first, 0.839 for the second.

Compared with G31A C40T, G31A C40G is higher in fraction ligated: 0.831 for the first, 0.85 for the second.

Compared with G31C A39C, G31C A39G is lower in fraction ligated: 0.779 for the first, 0.777 for the second.

First: G31C A39T
Second: G31C T43G
The fraction ligated of the first is higher: 0.778 for the first, 0.761 for the second.

Compared with G31C T43C, G31C T43A is lower in fraction ligated: 0.811 for the first, 0.807 for the second.

Compared with G31C G47A, G31C G47T is lower in fraction ligated: 0.489 for the first, 0.0589 for the second.

Compared with G31C G47C, G31C A57C is higher in fraction ligated: 0.0426 for the first, 0.788 for the second.

First: G31C A57G
Second: G31C A57T
The fraction ligated of the first is higher: 0.807 for the first, 0.793 for the second.

First: G31C A41C
Second: G31C A41G
The fraction ligated of the first is lower: 0.492 for the first, 0.779 for the second.

First: G31C A41T
Second: G31A T44G
The fraction ligated of the first is lower: 0.732 for the first, 0.819 for the second.

Compared with G31A T44C, G31A T44A is higher in fraction ligated: 0.801 for the first, 0.818 for the second.

Going from G31A C33A to G31A C33G, the fraction ligated falls from 0.833 to 0.824.

Compared with G31A C33T, G31C A56C is lower in fraction ligated: 0.829 for the first, 0.155 for the second.

Going from G31C A56G to G31C A56T, the fraction ligated rises from 0.607 to 0.694.

Going from G31C C33A to G31C C33T, the fraction ligated falls from 0.798 to 0.777.

First: G31C C33G
Second: G31A A48G
The fraction ligated of the first is higher: 0.794 for the first, 0.254 for the second.

Going from G31A A48T to G31A A48C, the fraction ligated rises from 0.01 to 0.322.

Going from G31C G50C to G31C G50A, the fraction ligated rises from 0.0327 to 0.057.

Going from G31C G50T to G31C A48T, the fraction ligated falls from 0.108 to 0.0135.

Compared with G31C A48C, G31C A48G is higher in fraction ligated: 0.242 for the first, 0.389 for the second.

Going from G31A T35A to G31A T35G, the fraction ligated falls from 0.823 to 0.763.

First: G31A T35C
Second: G31T C33A
The fraction ligated of the first is lower: 0.813 for the first, 0.831 for the second.

Compared with G31T C33G, G31T C33T is lower in fraction ligated: 0.808 for the first, 0.777 for the second.

Going from G31C G34T to G31C G34A, the fraction ligated rises from 0.778 to 0.78.

In the case of G31C G34C, the fraction ligated is reported as 0.804.
